IntAct's records for PubMed 22745600

B1: Pre-B-cell leukemia transcription factor 1 (Mus musculus), P41778 (parent)
chain: MDEQPRLMHSHAGVGMAGHPGLSQHLQDGAGGTEGEGGRKQDIGDILQQIMTITDQSLDEAQARKHALNCHRMKPALFNVLCEIKEKTVLSIRGAQEEEPTDPQLMRLDNMLLAEGVAGPEKGGGSAAAAAAAAASGGAGSDNSVEHSDYRAKLSQIRQIYHTELEKYEQACNEFTTHVMNLLREQSRTRPISPKEIERMVSIIHRKFSSIQMQLKQSTCEAVMILRSRFLDARRKRRNFNKQATEILNEYFYSHLSNPYPSEEAKEELAKKCGITVSQVSNWFGNKRIRYKKNIGKFQEEANIYAAKTAVTATNVSAHGSQANSPSTPNSAGSSSSFNMSNSGDLFMSVQSLNGDSYQGAQVGANVQSQVDTLRHVISQTGGYSDGLAASQMYSPQGISANGGWQDATTPSSVTSPTEGPGSVHSDTSN
B2: Homeobox protein extradenticle (Drosophila melanogaster (Fruit fly)), P40427 (parent)
chain: MEDPNRMLAHTGGMMAPQGYGLSGQDDGQNAGSENEVRKQKDIGEILQQIMSISEQSLDEAQARKHTLNCHRMKPALFSVLCEIKEKTVLSIRNTQEEEPPDPQLMRLDNMLIAEGVAGPEKGGGGAAAASAAAASQGGSLSIDGADNAIEHSDYRAKLAQIRQIYHQELEKYEQACNEFTTHVMNLLREQSRTRPITPKEIERMVQIIHKKFSSIQMQLKQSTCEAVMILRSRFLDARRKRRNFSKQASEILNEYFYSHLSNPYPSEEAKEELARKCGITVSQVSNWFGNKRIRYKKNIGKAQEEANLYAAKKAAGASPYSMAGPPSGTTTPMMSPAPPQDSMGYPMGSGGYDQQQPYDNSMGGYDPNLHQDLSP

Columns and labels:
hxb8_mouse Hoxb8, P09632 = variants of: B1; settings: with hxb8_mouse Hoxb8, P09632
lab_drome lab, P10105 = variants of: B2; settings: with lab_drome lab
abdb_drome Abd-B, P09087 = variants of: B2; settings: with abdb_drome Abd-B
ubx_drome Ubx, P83949 = variants of: B2; settings: with ubx_drome Ubx
abda_drome abd-A, P29555 = variants of: B2; settings: with abda_drome abd-A
Sequence of abda_drome abd-A, P29555 (P29555 whole entry): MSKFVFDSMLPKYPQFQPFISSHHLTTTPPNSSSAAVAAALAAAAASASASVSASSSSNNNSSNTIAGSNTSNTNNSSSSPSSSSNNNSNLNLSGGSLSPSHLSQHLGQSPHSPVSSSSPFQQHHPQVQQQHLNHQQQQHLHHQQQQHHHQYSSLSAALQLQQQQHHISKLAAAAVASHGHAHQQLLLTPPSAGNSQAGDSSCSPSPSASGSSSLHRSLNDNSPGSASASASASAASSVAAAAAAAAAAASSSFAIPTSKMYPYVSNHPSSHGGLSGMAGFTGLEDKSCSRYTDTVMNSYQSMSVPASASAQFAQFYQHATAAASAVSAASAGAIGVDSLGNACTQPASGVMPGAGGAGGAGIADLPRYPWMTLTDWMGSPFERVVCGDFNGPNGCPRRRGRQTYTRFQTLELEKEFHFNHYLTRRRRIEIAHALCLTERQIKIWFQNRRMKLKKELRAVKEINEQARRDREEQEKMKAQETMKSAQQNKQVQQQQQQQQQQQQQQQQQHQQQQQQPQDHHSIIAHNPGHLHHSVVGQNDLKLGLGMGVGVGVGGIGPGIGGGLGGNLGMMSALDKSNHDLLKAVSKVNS

Sequence of hxb8_mouse Hoxb8, P09632 (P09632 whole entry): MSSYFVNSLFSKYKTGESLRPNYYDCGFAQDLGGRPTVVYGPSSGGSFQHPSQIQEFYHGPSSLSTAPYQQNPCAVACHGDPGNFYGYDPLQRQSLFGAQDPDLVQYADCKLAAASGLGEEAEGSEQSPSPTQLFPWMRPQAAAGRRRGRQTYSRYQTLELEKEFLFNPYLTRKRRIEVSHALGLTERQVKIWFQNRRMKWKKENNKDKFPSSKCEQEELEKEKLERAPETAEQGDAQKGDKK
Sequence of lab_drome lab, P10105 (P10105 whole entry): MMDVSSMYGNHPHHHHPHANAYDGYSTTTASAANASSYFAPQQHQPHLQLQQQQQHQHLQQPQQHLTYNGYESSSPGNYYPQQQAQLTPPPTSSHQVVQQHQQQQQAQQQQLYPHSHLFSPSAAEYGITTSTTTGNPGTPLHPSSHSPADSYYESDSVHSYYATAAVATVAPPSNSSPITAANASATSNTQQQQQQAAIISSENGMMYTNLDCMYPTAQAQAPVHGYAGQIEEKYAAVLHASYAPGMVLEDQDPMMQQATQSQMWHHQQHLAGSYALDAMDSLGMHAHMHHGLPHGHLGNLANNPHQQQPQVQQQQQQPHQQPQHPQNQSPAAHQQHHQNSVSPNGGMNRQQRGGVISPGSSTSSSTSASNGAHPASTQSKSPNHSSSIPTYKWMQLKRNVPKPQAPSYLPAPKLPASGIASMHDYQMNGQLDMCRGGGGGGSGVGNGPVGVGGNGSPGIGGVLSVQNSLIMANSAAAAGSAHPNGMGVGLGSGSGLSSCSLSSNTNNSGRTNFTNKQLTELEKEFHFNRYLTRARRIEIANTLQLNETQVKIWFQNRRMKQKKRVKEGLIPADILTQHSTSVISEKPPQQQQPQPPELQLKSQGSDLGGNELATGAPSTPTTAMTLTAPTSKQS
Sequence of ubx_drome Ubx, P83949 (P83949 whole entry): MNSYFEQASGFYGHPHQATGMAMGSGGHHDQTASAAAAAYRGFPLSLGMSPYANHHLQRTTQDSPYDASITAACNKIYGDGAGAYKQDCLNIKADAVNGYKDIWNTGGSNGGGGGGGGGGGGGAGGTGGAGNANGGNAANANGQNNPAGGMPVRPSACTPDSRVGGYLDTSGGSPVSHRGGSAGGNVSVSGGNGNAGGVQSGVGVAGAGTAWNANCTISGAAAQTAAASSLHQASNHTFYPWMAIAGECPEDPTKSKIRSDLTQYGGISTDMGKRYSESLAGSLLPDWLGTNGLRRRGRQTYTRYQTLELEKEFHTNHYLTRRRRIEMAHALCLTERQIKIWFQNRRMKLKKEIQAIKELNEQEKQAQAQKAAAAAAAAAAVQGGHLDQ

MDEQPRLMHSHAGVGMAGHPGLSQHLQDGAGGTEGEGGRKQDIGDILQQIMTITDQSLDEAQARKHALNCHRMKPALFNVLCEIKEKTVLSIRGAQEEEPTDPQLMRLDNMLLAEGVAGPEKGGGSAAAAAAAAASGGAGSDNSVEHSDYRAKLSQIRQIYHTELEKYEQACNEFTTHVMNLLREQSRTRPISPKEIERMVSIIHRKFSSIQMQLKQSTCEAVMILRSRFLDARRKRRNFNKQATEILNEYFYSHLSNPYPSEEAKEELAKKCGITVSQVSAWFGNKRIRYKKNIGKFQEEANIYAAKTAVTATNVSAHGSQANSPSTPNSAGSSSSFNMSNSGDLFMSVQSLNGDSYQGAQVGANVQSQVDTLRHVISQTGGYSDGLAASQMYSPQGISANGGWQDATTPSSVTSPTEGPGSVHSDTSN [N282A]
effect of a mutation on the interaction (hxb8_mouse Hoxb8, P09632): disrupting interaction strength

MEDPNRMLAHTGGMMAPQGYGLSGQDDGQNAGSENEVRKQKDIGEILQQIMSISEQSLDEAQARKHTLNCHRMKPALFSVLCEIKEKTVLSIRNTQEEEPPDPQLMRLDNMLIAEGVAGPEKGGGGAAAASAAAASQGGSLSIDGADNAIEHSDYRAKLAQIRQIYHQELEKYEQACNEFTTHVMNLLREQSRTRPITPKEIERMVQIIHKKFSSIQMQLKQSTCEAVMILRSRFLDARRKRRNFSKQASEILNEYFYSHLSNPYPSEEAKEELARKCGITVSQVSAWFGNKRIRYKKNIGKAQEEANLYAAKKAAGASPYSMAGPPSGTTTPMMSPAPPQDSMGYPMGSGGYDQQQPYDNSMGGYDPNLHQDLSP [N287A]
effect of a mutation on the interaction (lab_drome lab, P10105): decreasing interaction strength
effect of a mutation on the interaction (abdb_drome Abd-B, P09087): disrupting interaction strength
effect of a mutation on the interaction (ubx_drome Ubx, P83949): decreasing interaction strength
effect of a mutation on the interaction (abda_drome abd-A, P29555): decreasing interaction strength
